For 83 variants, reverse-splicing fitness results are on record in the RNAGym collection of RNA variant scans (doi:10.1093/molbev/msab373).

The chains are these.
B1: Azoarcus group I ribozyme (parent)
chain: GUGCCUUGCGCCGGGAAACCACGCAAGGGAUGGUGUCAAAUUCGGCGAAACCUAAGCGCCCGCCCGGGCGUAUGGCAACGCCGAGCCAAGCUUCGGCGCCUGCGCCGAUGAAGGUGUAGAGACUAGACGGCACCCACCUAAGGCAAACGCUAUGGUGAAGGCAUAGUCCAGGGAGUGGCGAAAGUCACACAAACCGG

The variants in the data set derive from B1. Put plainly: reverse-splicing fitness (ratio to wild type); higher = more active; in vitro selection; Mg2+ level not given. The gist of the method:
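An in vitro group I ribozyme library with randomized positions was T7-transcribed and gel-purified. In triplicate, 10 pmol RNA in EPPS pH 7.5 was reacted with 50 pmoles of a 30-nt RNA substrate for 1 h at 37 °C across several added MgCl2 levels (1–48 mM), then stopped with EDTA. Products were reverse transcribed from a substrate-complementary primer, PCR-amplified and sequenced (HiSeq 4000). Fitness is a variant's read proportion after selection over that before, normalised to wild type.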
Take C82U A111G A120G A145U C150A C169U U176A: the reverse-splicing fitness worked out at 0.019. Under A111U A120U A145C C150U C169U U176G stands 0.0019; under C82G A111U A120C A145G C169U U176C, 0.0156. For C82G A111G A120C A145G C150U U176C the value was 0.0344; for C82A A120G A145C C169A U176C, 0.00741. For C82G A111U A120C C150A U176A, the reverse-splicing fitness worked out at 0.0138.

For the variant C82G A111C A120G A145C C150U U176A, the reverse-splicing fitness worked out at 0.0103. For the variant C82A A120U A145U C150A C169G U176C, the reverse-splicing fitness turned out to be 0.00266. On to A111G A120G C150U C169G U176C, for which the reverse-splicing fitness was 0.0735. C82A C150U C169A: the reverse-splicing fitness was determined as 0.0105. As to C82G A111U A120C A145U C150U, the reverse-splicing fitness worked out at 0.0337. For C82G A111U A120C A145U C150G, the reverse-splicing fitness stood at 0.0103.

Take C82A A111U A120G A145G C150G C169U U176G: the reverse-splicing fitness came out at 0.00707.

As for A120C A145U C150U C169U U176G, the reverse-splicing fitness is 0.0113. As for C82A A120C A145U C150A C169U U176G, the reverse-splicing fitness turned out to be 0.00487.

In the case of C82U A111C A120U A145U C150G C169U, the reverse-splicing fitness worked out at 0.00311. Regarding C82A A111U A120G A145C C150U C169G, the reverse-splicing fitness is 0.00823. Regarding C82G A111U A120C A145G C150G, the reverse-splicing fitness came out at 0.0114.

For the variant C82A A111U A145U C169U U176G, the reverse-splicing fitness worked out at 0.00541. For C82A A120G A145U C169U U176G the value was 0.00329; for C82A A111C A120U A145G C169U U176A, 0.00527; for C82A A111U A145C C150U C169U U176A, 0.0138.

Take C82G A145G C150U C169G: the reverse-splicing fitness stood at 0.012. A111G A120C C150A C169U U176A: the reverse-splicing fitness was found to be 0.0231. Turning to C82U A111C A145C C150G C169G U176A, the reverse-splicing fitness is 0.00798. Consider A111G A120C U176C, for which the reverse-splicing fitness stood at 0.522. Under C82U A111C C150U C169G U176G stands 0.00752. Consider C82A A111G A120C A145G C150U C169G U176G, for which the reverse-splicing fitness amounted to 0.00629. For C82A A111C A145C C150A C169U U176C, the reverse-splicing fitness was 0.0109. Turning to C82U A111C A120G A145G C169A, the reverse-splicing fitness was 0.0105. With C82A A111G A120C C150U C169A U176C, the reverse-splicing fitness stood at 0.0154.

For A120C C150U C169A U176A, the reverse-splicing fitness was 0.0206. Under C82U A111U A145U C169U U176C stands 0.0127; under C82U A111U A145U U176G, 0.0313; under A111G A145G C150G C169G, 0.0171. Under C82U A111G A145G C150U C169U U176G stands 0.005.

Consider A111G C150G C169A U176G, for which the reverse-splicing fitness amounted to 0.00557.

For C82U A145U C150G C169G U176A, the reverse-splicing fitness is 0.00745. Regarding C82A A111C A120U C150A C169U U176C, the reverse-splicing fitness was 0.00458. On to C82U A111C A145C C150G C169A, for which the reverse-splicing fitness was 0.00742. Consider C82U A111U A120G A145G C169A, for which the reverse-splicing fitness stood at 0.01.

Consider C82U A111U A145U C150U C169U, for which the reverse-splicing fitness turned out to be 0.0104. For the variant C82U A111C A120C C150A, the reverse-splicing fitness was determined as 0.00985.

Regarding C82U A111U C150G C169U U176C, the reverse-splicing fitness was 0.0106. As for C82G A111C A120C C150G U176A, the reverse-splicing fitness was determined as 0.00574. On to C82G A111C A120C A145U C150G C169U U176A, for which the reverse-splicing fitness is 0.00736. As to C82G A111U A120C A145U C150U U176A, the reverse-splicing fitness is 0.015. For C82A A111U A120G A145U C150G C169U the value was 0.00845; for C82G A111C A120C A145G C150U C169A U176C, 0.0142; for C82G A111G A120C C150G C169U U176A, 0.00806. Take C82U A111U A120G A145G C150U C169G U176G: the reverse-splicing fitness is 0.00411. As to C82A A145C C150G U176G, the reverse-splicing fitness came to 0.00808. Take C82A A120C A145U C169G U176G: the reverse-splicing fitness was found to be 0.00482. For C82G A120C A145U C169A U176G the value was 0.00379; for C82U A111C A145G C150G C169U U176A, 0.0102. Take A111C A145C C150A C169A U176C: the reverse-splicing fitness was found to be 0.00898. On to C82U A111U A120G A145C C150G U176G, for which the reverse-splicing fitness was 0.0024. C82A A111C A145U U176G: the reverse-splicing fitness stood at 0.0235. On to C82G A111U A120C A145C C150G C169U U176C, for which the reverse-splicing fitness stood at 0.0113. For the variant C82G A120U A145G U176A, the reverse-splicing fitness was 0.0724. Turning to A111C A120G A145C C169A, the reverse-splicing fitness was determined as 0.0989. Take A111U A120C A145G C150A C169U U176G: the reverse-splicing fitness amounted to 0.00691. Turning to A111C A145C C150U U176A, the reverse-splicing fitness was found to be 0.219.

As to A111C A145C C150U U176C, the reverse-splicing fitness is 0.349.

On to C82A A120G U176C, for which the reverse-splicing fitness came to 0.0184. Take C82G A111G A120C C169U: the reverse-splicing fitness was 0.0179.

As for C82A A111G A120U A145U C169G U176C, the reverse-splicing fitness came to 0.00235. Consider C82U A111C A120U C169G U176C, for which the reverse-splicing fitness came to 0.0039. On to C82A A111C A120G C169U, for which the reverse-splicing fitness worked out at 0.00841. Consider C82A A111U A120G A145C C150G, for which the reverse-splicing fitness came out at 0.00667. For A120U C169A U176G the value was 0.00204; for A111G A120G A145C C150U C169G U176C, 0.036; for C82A A111U A120G C150A C169A U176C, 0.0237.

With C82A A111G A120U A145C C169A, the reverse-splicing fitness was found to be 0.00203. On to A120G C169A U176G, for which the reverse-splicing fitness worked out at 0.00677. In the case of C82U A111C A120G A145C C169A U176G, the reverse-splicing fitness stood at 0.00336. For C82U A111G A145C C150A U176A, the reverse-splicing fitness was determined as 0.0156. Under C82U A111G A145U C150G C169G U176A stands 0.00668; under C82A A111G A120C A145U C150G C169U, 0.00884. With C82A A111U A120G A145U C150U, the reverse-splicing fitness worked out at 0.0134. For the variant C82U A145U C150G C169G, the reverse-splicing fitness came to 0.00717. With C82A A145U C150G U176A, the reverse-splicing fitness stood at 0.0365.

Regarding A111U A145G C169G U176C, the reverse-splicing fitness stood at 0.0358.
